Experimental data: article PMC9482650, “Quantitative fragmentomics allow affinity mapping of interactomes” (Nature Communications, 2022)

T1: PDZD7_3, Q9H5P4
T1 sequence (Q9H5P4 857-944, limits assumed, looked up): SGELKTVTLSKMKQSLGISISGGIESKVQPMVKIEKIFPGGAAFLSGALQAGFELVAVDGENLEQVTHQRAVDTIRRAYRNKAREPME

T2: LNX2_3, Q8N448
T2 sequence (Q8N448 463-564, limits assumed, looked up): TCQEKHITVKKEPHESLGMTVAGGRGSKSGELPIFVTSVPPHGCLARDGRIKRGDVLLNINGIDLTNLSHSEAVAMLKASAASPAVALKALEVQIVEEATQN

T3: GRIP1_3, Q9Y3R0
T3 sequence (Q9Y3R0 247-346, limits assumed, looked up): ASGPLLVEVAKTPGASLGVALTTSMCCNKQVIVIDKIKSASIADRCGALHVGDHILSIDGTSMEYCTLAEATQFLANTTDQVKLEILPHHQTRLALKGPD

T4: SHANK1, Q9Y566
T4 sequence (Q9Y566 658-767, limits assumed, looked up): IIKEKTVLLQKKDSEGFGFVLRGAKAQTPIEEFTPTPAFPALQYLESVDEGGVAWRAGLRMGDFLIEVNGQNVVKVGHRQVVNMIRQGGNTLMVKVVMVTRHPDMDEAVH

T5: APBA1_2, Q02410
T5 sequence (Q02410 742-832, limits assumed, looked up): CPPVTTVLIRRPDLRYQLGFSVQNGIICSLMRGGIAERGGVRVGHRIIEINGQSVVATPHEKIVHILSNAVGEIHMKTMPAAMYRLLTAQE

T6: GRIP1_7, Q9Y3R0
T6 sequence (Q9Y3R0 999-1096, limits assumed, looked up): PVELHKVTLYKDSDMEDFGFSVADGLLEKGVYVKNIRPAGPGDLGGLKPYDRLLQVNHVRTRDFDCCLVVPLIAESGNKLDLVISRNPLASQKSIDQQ

T7: HTRA3, P83110
T7 sequence (P83110 354-453, limits assumed, looked up): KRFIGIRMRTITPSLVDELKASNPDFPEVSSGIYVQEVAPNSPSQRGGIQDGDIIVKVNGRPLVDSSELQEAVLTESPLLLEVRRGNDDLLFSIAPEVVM

T8: TX1BP3, O14907
T8 sequence (O14907 10-122, limits assumed, looked up): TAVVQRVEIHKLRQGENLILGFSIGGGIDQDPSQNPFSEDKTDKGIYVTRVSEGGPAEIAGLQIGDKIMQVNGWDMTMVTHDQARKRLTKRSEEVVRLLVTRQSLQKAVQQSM

T9: SYNJ2BP, P57105
T9 sequence (P57105 8-110, limits assumed, looked up): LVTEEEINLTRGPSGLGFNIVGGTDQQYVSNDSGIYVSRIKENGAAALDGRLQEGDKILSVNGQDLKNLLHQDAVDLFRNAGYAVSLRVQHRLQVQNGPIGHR

T10: SNTB1, Q13884
T10 sequence (Q13884 107-205, limits assumed, looked up): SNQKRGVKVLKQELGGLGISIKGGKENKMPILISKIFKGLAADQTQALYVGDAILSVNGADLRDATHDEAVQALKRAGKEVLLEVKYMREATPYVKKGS

T11: APBA1_1, Q02410
T11 sequence (Q02410 651-752, limits assumed, looked up): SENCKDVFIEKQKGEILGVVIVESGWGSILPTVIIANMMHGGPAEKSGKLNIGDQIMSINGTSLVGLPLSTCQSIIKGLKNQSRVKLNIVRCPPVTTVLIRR

T12: MPDZ_10, O75970
T12 sequence (O75970 1624-1722, limits assumed, looked up): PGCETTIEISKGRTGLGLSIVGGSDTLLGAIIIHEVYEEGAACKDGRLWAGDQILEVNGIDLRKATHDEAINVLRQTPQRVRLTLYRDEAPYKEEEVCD

T13: MPP7, Q5T2T1
T13 sequence (Q5T2T1 134-230, limits assumed, looked up): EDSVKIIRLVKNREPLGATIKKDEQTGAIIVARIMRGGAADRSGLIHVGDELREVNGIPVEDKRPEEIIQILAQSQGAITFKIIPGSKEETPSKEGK


Key:
Test in all cases: holdup assay
Set-up in all cases: key: below the threshold = too weak to quantify, mostly under pKd 3.1 to 4
Conditions in all cases: plain residues with an end cap or a label only (N-terminal biotin on a linker: ado-ado)
FRMPD2_1, Q68DX3 = target: FRMPD2_1, Q68DX3
Chain of FRMPD2_1, Q68DX3 (Q68DX3 770-861): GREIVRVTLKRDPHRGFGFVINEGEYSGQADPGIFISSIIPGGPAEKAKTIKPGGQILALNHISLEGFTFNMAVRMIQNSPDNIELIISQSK

PDZD7_3, Q9H5P4 = target: T1, PDZD7_3, Q9H5P4
DLG2_2, Q15700 = target: DLG2_2, Q15700
Chain of DLG2_2, Q15700 (Q15700 189-283): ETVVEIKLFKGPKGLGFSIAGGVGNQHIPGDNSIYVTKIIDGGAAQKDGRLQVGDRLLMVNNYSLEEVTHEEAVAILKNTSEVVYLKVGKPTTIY

PARD3_3, Q8TEW0 = target: PARD3_3, Q8TEW0
Chain of PARD3_3, Q8TEW0 (Q8TEW0 582-685): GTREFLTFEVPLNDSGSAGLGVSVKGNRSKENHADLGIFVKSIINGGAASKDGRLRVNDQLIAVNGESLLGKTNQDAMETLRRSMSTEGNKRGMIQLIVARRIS

MAGI3_2, Q5TCQ9 = target: MAGI3_2, Q5TCQ9
Chain of MAGI3_2, Q5TCQ9 (Q5TCQ9 398-503): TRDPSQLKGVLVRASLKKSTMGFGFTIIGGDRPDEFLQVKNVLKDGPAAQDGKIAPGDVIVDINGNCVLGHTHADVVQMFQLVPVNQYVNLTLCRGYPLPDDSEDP

Inadl_1, Q8NI35 = target: Inadl_1, Q8NI35
Chain of Inadl_1, Q8NI35 (Q8NI35 113-229): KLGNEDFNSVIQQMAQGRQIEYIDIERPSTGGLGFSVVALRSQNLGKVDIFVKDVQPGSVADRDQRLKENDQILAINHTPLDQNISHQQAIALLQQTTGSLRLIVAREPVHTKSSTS

GRID2IP_1, A4D2P6 = target: GRID2IP_1, A4D2P6
Chain of GRID2IP_1, A4D2P6 (A4D2P6 1-87): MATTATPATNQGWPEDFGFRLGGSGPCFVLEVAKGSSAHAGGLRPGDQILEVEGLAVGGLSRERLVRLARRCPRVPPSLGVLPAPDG

LNX2_3, Q8N448 = target: T2, LNX2_3, Q8N448
GIPC2, Q8TF65 = target: GIPC2, Q8TF65
Chain of GIPC2, Q8TF65 (Q8TF65 112-203): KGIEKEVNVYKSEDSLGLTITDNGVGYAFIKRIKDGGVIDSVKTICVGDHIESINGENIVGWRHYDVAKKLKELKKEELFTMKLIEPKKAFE

GRIP1_3, Q9Y3R0 = target: T3, GRIP1_3, Q9Y3R0
SHANK1, Q9Y566 = target: T4, SHANK1, Q9Y566
APBA1_2, Q02410 = target: T5, APBA1_2, Q02410
GRIP1_7, Q9Y3R0 = target: T6, GRIP1_7, Q9Y3R0
HTRA3, P83110 = target: T7, HTRA3, P83110
TX1BP3, O14907 = target: T8, TX1BP3, O14907
MAST1, Q9Y2H9 = target: MAST1, Q9Y2H9
Chain of MAST1, Q9Y2H9 (Q9Y2H9 962-1065): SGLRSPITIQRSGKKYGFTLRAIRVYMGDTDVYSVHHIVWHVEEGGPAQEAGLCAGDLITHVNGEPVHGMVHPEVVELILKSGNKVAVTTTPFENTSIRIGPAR

SYNJ2BP, P57105 = target: T9, SYNJ2BP, P57105
GRID2IP_2, A4D2P6 = target: GRID2IP_2, A4D2P6
Chain of GRID2IP_2, A4D2P6 (A4D2P6 272-370): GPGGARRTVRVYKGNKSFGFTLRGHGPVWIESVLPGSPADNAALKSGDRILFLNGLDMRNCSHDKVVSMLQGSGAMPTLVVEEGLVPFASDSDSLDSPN

NHERF4_4, Q86UT5 = target: NHERF4_4, Q86UT5
Chain of NHERF4_4, Q86UT5 (Q86UT5 464-550): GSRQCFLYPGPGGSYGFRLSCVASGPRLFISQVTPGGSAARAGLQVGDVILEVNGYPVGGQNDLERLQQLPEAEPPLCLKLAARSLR

SNTB1, Q13884 = target: T10, SNTB1, Q13884
APBA1_1, Q02410 = target: T11, APBA1_1, Q02410
MPDZ_10, O75970 = target: T12, MPDZ_10, O75970
MPP7, Q5T2T1 = target: T13, MPP7, Q5T2T1

Binder | pKd (FRMPD2_1, Q68DX3) | pKd (PDZD7_3, Q9H5P4) | pKd (DLG2_2, Q15700) | pKd (PARD3_3, Q8TEW0) | pKd (MAGI3_2, Q5TCQ9) | pKd (Inadl_1, Q8NI35) | pKd (GRID2IP_1, A4D2P6) | pKd (LNX2_3, Q8N448) | pKd (GIPC2, Q8TF65) | pKd (GRIP1_3, Q9Y3R0) | pKd (SHANK1, Q9Y566) | pKd (APBA1_2, Q02410) | pKd (GRIP1_7, Q9Y3R0) | pKd (HTRA3, P83110) | pKd (TX1BP3, O14907) | pKd (MAST1, Q9Y2H9) | pKd (SYNJ2BP, P57105) | pKd (GRID2IP_2, A4D2P6) | pKd (NHERF4_4, Q86UT5) | pKd (SNTB1, Q13884) | other results
DFRHKSSFVI [JAM3, Q9BX67] | below the threshold | 4.85 | below the threshold | 3.94 | below the threshold | below the threshold | below the threshold | below the threshold | below the threshold | below the threshold | below the threshold | below the threshold | below the threshold | 3.89 | below the threshold | below the threshold | below the threshold | below the threshold | below the threshold | below the threshold | pKd (APBA1_1, Q02410): below the threshold; pKd (MPDZ_10, O75970): below the threshold; pKd (MPP7, Q5T2T1): 3.79
QYPGSPDSWV [PKP4, Q99569] | below the threshold | 4.11 | 4.03 | 3.85 | below the threshold | below the threshold | below the threshold | below the threshold | 3.5 | below the threshold | below the threshold | 4.36 | 3.7 | 5.54 | 4.98 | 3.97 | 4.94 | below the threshold | below the threshold | 4.36 | pKd (APBA1_1, Q02410): below the threshold; pKd (MPDZ_10, O75970): 3.7; pKd (MPP7, Q5T2T1): below the threshold
LGHTPFVDEL [UQCRC2, P22695] | below the threshold | below the threshold | below the threshold | below the threshold | below the threshold | below the threshold | below the threshold | below the threshold | below the threshold | below the threshold | below the threshold | 3.75 | below the threshold | below the threshold | below the threshold | 4.12 | 4 | below the threshold | below the threshold | below the threshold | pKd (APBA1_1, Q02410): below the threshold; pKd (MPDZ_10, O75970): below the threshold; pKd (MPP7, Q5T2T1): below the threshold
